Consider 1 molecule from patent US20220153847A1 (Chugai, published 2022).

This test concerns the target T1, HLA-DQ6.3 on Ba/F3 cells (human, UniProt P01920 33-230, limits assumed).
T1 construct: whole, on cells; also called Ba/F3-HLA-DQ6.3
T1 MHC II alpha: not shown
T1 MHC II beta: not shown
Put plainly: FACS on Ba/F3-HLA-DQ6.3 cells, single antibody concentration, goat F(ab')2 anti-human IgG-PE.

B1: IC17 (antibody, V domains shown)
VH: QVQLQQSGPQLVRPGASVKISCKASGYSFTSYWMHWVNQRPGQGLEWIGMIDPSYSETRLNQKFKDKATLTVDKSSSTAYMQLSSPTSEDSAVYYCALYGNYFDYWGQGTTLTVSS
VL: DIQMTQSSSSFSVSLGDRVTITCKASEDIYNRLAWYQQKPGNAPRLLISGATSLETGVPSRFSGSGSGKDYTLSITSLQTEDVATYYCQQYWSTPYTFGGGTKLEVK
notes: also called IC17 bivalent; TC17
For the molecule B1, the binding result is “no binding (tested: 5 microgram/mL)”.
